Source: US20180155451A1 (published 2018)

B1: GpH7-A5/GpH7-B3 variant D270_07I/GpL16-k0 (antibody, human IgG1, kappa)
heavy 1: not shown
heavy 2: not shown
light: DIVMTQSPLSLPVTPGEPASISCQASESLVHSNRNTYLHWYLQKPGQSPQLLIYKVSNRFSGVPDRFSGSGSGTDFTLKISRVEAEDVGVYYCSQNTHVPPTFGQGTKVEIERTVAAPSVFIFPPSDEQLKSGTASVVCLLNNFYPREAKVQWKVDNALQSGNSQESVTEQDSKDSTYSLSSTLTLSKADYEKHKVYACEVTHQGLSSPVTKSFNRGEC
notes: heterodimerized anti-glypican-3 IgG1; alteration in the GpH7-B3 chain only; also called He Ab
B2: GpH7-A5/GpH7-B3 variant E269_20W/GpL16-k0 (antibody, human IgG1, kappa)
heavy 1: not shown
heavy 2: not shown
light: B1 light
notes: as for B1
B3: GpH7-A5/GpH7-B3 variant E333_02A/GpL16-k0 (antibody, human IgG1, kappa)
heavy 1: not shown
heavy 2: not shown
light: B1 light
notes: as for B1
B4: GpH7-A5/GpH7-B3 variant P271_07I/GpL16-k0 (antibody, human IgG1, kappa)
heavy 1: not shown
heavy 2: not shown
light: B1 light
notes: as for B1
B5: GpH7-A5/GpH7-B3 variant E333_05P/GpL16-k0 (antibody, human IgG1, kappa)
heavy 1: not shown
heavy 2: not shown
light: B1 light
notes: as for B1
B6: GpH7-A5/GpH7-B3 variant I332_12R/GpL16-k0 (antibody, human IgG1, kappa)
heavy 1: not shown
heavy 2: not shown
light: B1 light
notes: as for B1
B7: GpH7-A5/GpH7-B3 variant D270_15Y/GpL16-k0 (antibody, human IgG1, kappa)
heavy 1: not shown
heavy 2: not shown
light: B1 light
notes: as for B1
B8: GpH7-A5/GpH7-B3 variant A330_11K/GpL16-k0 (antibody, human IgG1, kappa)
heavy 1: not shown
heavy 2: not shown
light: B1 light
notes: as for B1
B9: GpH7-A5/GpH7-B3 variant A330_03V/GpL16-k0 (antibody, human IgG1, kappa)
heavy 1: not shown
heavy 2: not shown
light: B1 light
notes: as for B1
B10: GpH7-A5/GpH7-B3 variant P271_15Y/GpL16-k0 (antibody, human IgG1, kappa)
heavy 1: not shown
heavy 2: not shown
light: B1 light
notes: as for B1
B11: GpH7-A5/GpH7-B3 variant A327_13S/GpL16-k0 (antibody, human IgG1, kappa)
heavy 1: not shown
heavy 2: not shown
light: B1 light
notes: as for B1
B12: GpH7-A5/GpH7-B3 variant A330_10E/GpL16-k0 (antibody, human IgG1, kappa)
heavy 1: not shown
heavy 2: not shown
light: B1 light
notes: as for B1
B13: GpH7-A5/GpH7-B3 variant D270_03V/GpL16-k0 (antibody, human IgG1, kappa)
heavy 1: not shown
heavy 2: not shown
light: B1 light
notes: as for B1
B14: GpH7-A5/GpH7-B3 variant D270_08L/GpL16-k0 (antibody, human IgG1, kappa)
heavy 1: not shown
heavy 2: not shown
light: B1 light
notes: as for B1
B15: GpH7-A5/GpH7-B3 variant A330_20W/GpL16-k0 (antibody, human IgG1, kappa)
heavy 1: not shown
heavy 2: not shown
light: B1 light
notes: as for B1
B16: GpH7-A5/GpH7-B3 variant A330_07I/GpL16-k0 (antibody, human IgG1, kappa)
heavy 1: not shown
heavy 2: not shown
light: B1 light
notes: as for B1
B17: GpH7-A5/GpH7-B3 variant P271_16H/GpL16-k0 (antibody, human IgG1, kappa)
heavy 1: not shown
heavy 2: not shown
light: B1 light
notes: as for B1
B18: GpH7-A5/GpH7-B3 variant A330_15Y/GpL16-k0 (antibody, human IgG1, kappa)
heavy 1: not shown
heavy 2: not shown
light: B1 light
notes: as for B1
B19: GpH7-A5/GpH7-B3 variant D270_13S/GpL16-k0 (antibody, human IgG1, kappa)
heavy 1: not shown
heavy 2: not shown
light: B1 light
notes: as for B1
B20: GpH7-A5/GpH7-B3 variant D270_16H/GpL16-k0 (antibody, human IgG1, kappa)
heavy 1: not shown
heavy 2: not shown
light: B1 light
notes: as for B1
B21: GpH7-A5/GpH7-B3 variant D270_11K/GpL16-k0 (antibody, human IgG1, kappa)
heavy 1: not shown
heavy 2: not shown
light: B1 light
notes: as for B1
B22: GpH7-A5/GpH7-B3 variant E269_19Q/GpL16-k0 (antibody, human IgG1, kappa)
heavy 1: not shown
heavy 2: not shown
light: B1 light
notes: as for B1
B23: GpH7-A5/GpH7-B3 variant D270_19Q/GpL16-k0 (antibody, human IgG1, kappa)
heavy 1: not shown
heavy 2: not shown
light: B1 light
notes: as for B1
B24: GpH7-A5/GpH7-B3 variant D270_04F/GpL16-k0 (antibody, human IgG1, kappa)
heavy 1: not shown
heavy 2: not shown
light: B1 light
notes: as for B1
B25: GpH7-A5/GpH7-B3 variant A330_18N/GpL16-k0 (antibody, human IgG1, kappa)
heavy 1: not shown
heavy 2: not shown
light: B1 light
notes: as for B1

Columns and labels:
[1] = molecular target: T1, FcγRIIb extracellular domain with C-terminal His tag (human, UniProt P31994 43-217); assay: SPR (Biacore), antibody captured on antigen peptide chip, FcγR as analyte; relative binding
T1 construct: extracellular domain; soluble receptor expressed in FreeStyle293 cells, used as analyte in Biacore; also called FcgRIIb; 2b; not shown: His tag attached to the C terminus
T1 sequence (looked up): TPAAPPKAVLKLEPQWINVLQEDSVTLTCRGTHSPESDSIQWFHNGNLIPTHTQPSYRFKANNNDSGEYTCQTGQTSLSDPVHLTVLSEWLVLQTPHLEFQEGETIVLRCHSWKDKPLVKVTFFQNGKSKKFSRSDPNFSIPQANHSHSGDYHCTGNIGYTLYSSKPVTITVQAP

[2] = molecular target: T2, FcγRIa extracellular domain with C-terminal His tag (human, UniProt P12314 16-292); assay: as above
T2 construct: extracellular domain; soluble receptor expressed in FreeStyle293 cells, used as analyte in Biacore; also called FcgRI; 1a; not shown: His tag attached to the C terminus
T2 sequence (P12314 16-292): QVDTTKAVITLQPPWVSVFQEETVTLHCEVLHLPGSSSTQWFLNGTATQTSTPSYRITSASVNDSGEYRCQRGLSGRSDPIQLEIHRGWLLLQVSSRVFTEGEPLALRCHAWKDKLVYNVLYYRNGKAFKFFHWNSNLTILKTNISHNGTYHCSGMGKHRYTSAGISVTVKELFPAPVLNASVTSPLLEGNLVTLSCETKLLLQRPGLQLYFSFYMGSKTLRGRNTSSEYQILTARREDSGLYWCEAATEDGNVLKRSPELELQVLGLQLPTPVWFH

| Binder | He/Con_2b [1] | He/Con_1a [2] |
| --- | --- | --- |
| B1 | 41.5 % of control GpH7-A5/GpH7-B3/GpL16-k0 (=100) | 74.6 % of control GpH7-A5/GpH7-B3/GpL16-k0 (=100) |
| B2 | 42.5 % of control GpH7-A5/GpH7-B3/GpL16-k0 (=100) | 105 % of control GpH7-A5/GpH7-B3/GpL16-k0 (=100) |
| B3 | 83.8 % of control GpH7-A5/GpH7-B3/GpL16-k0 (=100) | 103 % of control GpH7-A5/GpH7-B3/GpL16-k0 (=100) |
| B4 | 76.8 % of control GpH7-A5/GpH7-B3/GpL16-k0 (=100) | 102 % of control GpH7-A5/GpH7-B3/GpL16-k0 (=100) |
| B5 | 97.7 % of control GpH7-A5/GpH7-B3/GpL16-k0 (=100) | 102 % of control GpH7-A5/GpH7-B3/GpL16-k0 (=100) |
| B6 | 48.9 % of control GpH7-A5/GpH7-B3/GpL16-k0 (=100) | 100 % of control GpH7-A5/GpH7-B3/GpL16-k0 (=100) |
| B7 | 44.9 % of control GpH7-A5/GpH7-B3/GpL16-k0 (=100) | 68.5 % of control GpH7-A5/GpH7-B3/GpL16-k0 (=100) |
| B8 | 95 % of control GpH7-A5/GpH7-B3/GpL16-k0 (=100) | 103 % of control GpH7-A5/GpH7-B3/GpL16-k0 (=100) |
| B9 | 52.4 % of control GpH7-A5/GpH7-B3/GpL16-k0 (=100) | 106 % of control GpH7-A5/GpH7-B3/GpL16-k0 (=100) |
| B10 | 52.3 % of control GpH7-A5/GpH7-B3/GpL16-k0 (=100) | 103 % of control GpH7-A5/GpH7-B3/GpL16-k0 (=100) |
| B11 | 79.5 % of control GpH7-A5/GpH7-B3/GpL16-k0 (=100) | 102 % of control GpH7-A5/GpH7-B3/GpL16-k0 (=100) |
| B12 | 70.1 % of control GpH7-A5/GpH7-B3/GpL16-k0 (=100) | 107 % of control GpH7-A5/GpH7-B3/GpL16-k0 (=100) |
| B13 | 39.5 % of control GpH7-A5/GpH7-B3/GpL16-k0 (=100) | 77.9 % of control GpH7-A5/GpH7-B3/GpL16-k0 (=100) |
| B14 | 53.6 % of control GpH7-A5/GpH7-B3/GpL16-k0 (=100) | 73.5 % of control GpH7-A5/GpH7-B3/GpL16-k0 (=100) |
| B15 | 76.1 % of control GpH7-A5/GpH7-B3/GpL16-k0 (=100) | 108 % of control GpH7-A5/GpH7-B3/GpL16-k0 (=100) |
| B16 | 67.1 % of control GpH7-A5/GpH7-B3/GpL16-k0 (=100) | 105 % of control GpH7-A5/GpH7-B3/GpL16-k0 (=100) |
| B17 | 67.9 % of control GpH7-A5/GpH7-B3/GpL16-k0 (=100) | 102 % of control GpH7-A5/GpH7-B3/GpL16-k0 (=100) |
| B18 | 95 % of control GpH7-A5/GpH7-B3/GpL16-k0 (=100) | 105 % of control GpH7-A5/GpH7-B3/GpL16-k0 (=100) |
| B19 | 44.2 % of control GpH7-A5/GpH7-B3/GpL16-k0 (=100) | 75.3 % of control GpH7-A5/GpH7-B3/GpL16-k0 (=100) |
| B20 | 47.2 % of control GpH7-A5/GpH7-B3/GpL16-k0 (=100) | 66 % of control GpH7-A5/GpH7-B3/GpL16-k0 (=100) |
| B21 | 20.3 % of control GpH7-A5/GpH7-B3/GpL16-k0 (=100) | 58.4 % of control GpH7-A5/GpH7-B3/GpL16-k0 (=100) |
| B22 | 44.3 % of control GpH7-A5/GpH7-B3/GpL16-k0 (=100) | 105 % of control GpH7-A5/GpH7-B3/GpL16-k0 (=100) |
| B23 | 48 % of control GpH7-A5/GpH7-B3/GpL16-k0 (=100) | 78.2 % of control GpH7-A5/GpH7-B3/GpL16-k0 (=100) |
| B24 | 53.1 % of control GpH7-A5/GpH7-B3/GpL16-k0 (=100) | 78.1 % of control GpH7-A5/GpH7-B3/GpL16-k0 (=100) |
| B25 | 63.7 % of control GpH7-A5/GpH7-B3/GpL16-k0 (=100) | 106 % of control GpH7-A5/GpH7-B3/GpL16-k0 (=100) |
